Experimental data taken from paper PMC6735382.

How the values were obtained:
[1] = molecular target: Clover-PPARγ1 (human peroxisome proliferator-activated receptor gamma isoform 1, N-terminally labeled with Clover) (human) (UniProt P37231); assay: FRET or BRET; flow cytometry-based FRET (Clover donor, mRuby2 acceptor) in living, stably transduced HEK293T cells; percent FRET-positive among Clover/mRuby2-double positive cells and FRET efficiency from fluorescence medians; N-CoR2 WT cells also treated 24 h with DMSO, 1 µM rosiglitazone, 10 µM GW9662 or both
Sequence of UniProt P37231 (P37231 29-505): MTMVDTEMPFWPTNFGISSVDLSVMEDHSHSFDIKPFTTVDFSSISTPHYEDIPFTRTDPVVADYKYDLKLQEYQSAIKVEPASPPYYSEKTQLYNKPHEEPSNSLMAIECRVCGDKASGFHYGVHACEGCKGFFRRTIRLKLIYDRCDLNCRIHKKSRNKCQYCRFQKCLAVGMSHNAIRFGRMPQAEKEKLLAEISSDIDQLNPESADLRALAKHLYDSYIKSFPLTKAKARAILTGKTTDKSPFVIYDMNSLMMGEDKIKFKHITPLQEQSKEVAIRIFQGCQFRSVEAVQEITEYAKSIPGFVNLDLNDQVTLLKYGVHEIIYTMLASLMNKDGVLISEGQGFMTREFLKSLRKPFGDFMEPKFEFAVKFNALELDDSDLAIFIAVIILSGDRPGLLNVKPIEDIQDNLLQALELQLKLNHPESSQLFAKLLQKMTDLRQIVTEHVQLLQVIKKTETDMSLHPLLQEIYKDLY

[2] = molecular target: Clover-PPARγ1 (human peroxisome proliferator-activated receptor gamma isoform 1, N-terminally labeled with Clover) (human) (UniProt P37231)

N-CoR2 WT-mRuby2 (N-terminally truncated human nuclear receptor co-repressor 2 with ID2 and ID1, C-terminally labeled with mRuby2) (domain or fragment)
percent FRET-positive cells [1]: 70% | PPARγ-dependent transactivation (PPRE reporter p(AOX)3-TK-Luc) in HEK293T cells, 1 µM rosiglitazone 24 h against DMSO [2]: 3.5 fold
